From the supplement of paper PMC12042874
± gives the uncertainty stated by the source.

Test: amyloid nucleation score (Sup35N fusion, yeast selection) (log enrichment); library NNK3; higher = more nucleation; inactive = no reads after selection
Method in brief: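 Yeast lacking psi expressed peptides of 20 random codons fused to Sup35N, received 100 μM copper sulfate for 24 hours, and were then grown for 7 days at 30°C on medium lacking adenine and uracil. Illumina sequencing of input and output plasmid inserts provided the reads. Nucleation scores are DiMSum log enrichments of output over input, centred on the mode of non-aggregating sequences. Any sequence with under 100 input reads was excluded.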

Row | Substance | amyloid nucleation score
1 | IVKVLFNSFGGWWYAHGLYV | inactive
2 | IVLSNVRVGIACGDLC | 0.182 ± 0.44
3 | IVLTFYIYRNSYCSAV | 0.89 ± 0.092
4 | IVNRIVVSSRRFSLVHWGWA | 1.73 ± 0.11
5 | IVQLHDIVDS | -0.168 ± 0.9
6 | IVRSF | inactive
7 | IVSALQFAEAKL | inactive
8 | IVSKW | inactive
9 | IVVFLDLFRDTFGLGLPTKG | inactive
10 | IWASRS | inactive
11 | IWETVRIFCFINHAINCGVP | 2.35 ± 0.079
12 | IWKLHITLLSYRSILHVLHM | inactive
13 | IWQCRYLRMGQ | inactive
14 | IWTTPHVCPNLMMSARGCRL | inactive
15 | IWYGLDIWRPLCIGAPMVKD | inactive
16 | IYCFRGNHFDCLGAGNMLQV | inactive
17 | IYCWCSVIDTGRAARLRVIK | inactive
18 | IYDCFVTGSFLRK | inactive
19 | IYGWGRRFRTRR | inactive
20 | IYHSYNESVCTYSNHPSRM | inactive
21 | IYIAKLHEFSIRYVLPVWYI | inactive
22 | IYNNSYKFCILLVTWTIEVQ | inactive
23 | IYSTVSYQGTVWRKYWQMNG | inactive

Row | Substance | amyloid nucleation score
24 | IYTARIVTFCTFFRRY | inactive
25 | IYVGKRNSCRPSSEDSVGNR | 0.402 ± 0.38
26 | IYYFSLSMVLRCSEWTLYVY | inactive
27 | KAARTSQGNARCVYVKGVSN | inactive
28 | KAHRYVWVPSMPSNMNSHRR | inactive
29 | KAIDFADDELRPIYMTFRVQ | inactive
30 | KALGAEYNTHGTVSGCSLCK | inactive
31 | KALSCSRSFAVKVVYTQDP | inactive
32 | KALSSDPTICFRRAFIVHCK | inactive
33 | KAPNPI | inactive
34 | KAQEHPA | inactive
35 | KARWYFIVLNVVTHSWDSKV | inactive
36 | KCAVDTV | inactive
37 | KCDDIGCLGQAT | inactive
38 | KCKFNWVCEVVR | inactive
39 | KCLGFHKHGALFTAYWGQTS | inactive
40 | KCLLGLSLVRAKRSKLWMW | inactive
41 | KCMFSIFSGAASVLLKMFMV | inactive
42 | KCSFTVNYRRRYSLYC | inactive
43 | KCSTMGWRWYMSS | -0.106 ± 0.93
44 | KDCQKNGWLSSTNLELLQCP | inactive
45 | KDFGRLLLN | inactive
46 | KDGFYNVPLVEPHMRSSSTP | inactive

Row | Substance | amyloid nucleation score
47 | KDLCPFARPASRLHRVACME | inactive
48 | KDLQR | inactive
49 | KDQSRSARSST | inactive
50 | KDVSPVCNVPMSGWWTTAFL | inactive
51 | KDYLLSSYCEECHDHSSSEL | inactive
52 | KEGDFPLSSSRYSYTNYLVI | inactive
53 | KENFASVCCGCYPMQPPGIM | inactive
54 | KFARV | inactive
55 | KFFCW | inactive
56 | KFGFCDIMKGLFRRMLGLKV | -1.06 ± 1.3
57 | KFGSLVKTYFRDMFRSILCW | inactive
58 | KFIGFYVWVYVCHCVVIRAY | inactive
59 | KFLISFRRSY | 2.07 ± 0.076
60 | KFLYRCINRLANSLIRELPI | inactive
61 | KFRKTRSKR | inactive
62 | KFYLILVA | inactive
63 | KGCNETWFVNPRGRYCWEFC | inactive
64 | KGDCQWVVPYVIHSNHVRAG | inactive
65 | KGLYV | inactive
66 | KGTPGLDFTAADPGVIAL | inactive
67 | KIHCAESATVVLWVRVGDCR | inactive
68 | KISAIVSYPAYVIIVHRLWH | inactive
69 | KITIKFYRCTS | inactive

Row | Substance | amyloid nucleation score
70 | KIVLDRARDWQL | 0.094 ± 0.41
71 | KKLHALESCA | inactive
72 | KKMLEKKI | inactive
73 | KKRGHEWFVIIKSARGASKR | inactive
74 | KKYVETVSS | inactive
75 | KLCTVSNRSVMPGIT | inactive
76 | KLCYTASEWSGNSLNVVRNK | inactive
77 | KLDTVYRPSMRACVCNREFV | -0.515 ± 1.1
78 | KLFYQMILYRNG | inactive
79 | KLLLYFKYLMPVELISWSTL | inactive
80 | KLLRQNSY | inactive
81 | KLMEICYRVRIRRMECQVNW | 0.753 ± 0.12
82 | KLNFVGLVLRNVGSWEGHGC | inactive
83 | KLSDDRKTRCNYYFMGLVVV | inactive
84 | KLTGQDLVVGNAFATVVYVE | inactive
85 | KLVWRERICEDGFYIKTTFL | inactive
86 | KMCLLFVREFRMLFACVWVT | inactive
87 | KMFSLWFQ | 1.69 ± 0.12
88 | KMMARTSNVVEVLCWRTDVA | 0.015 ± 0.64
89 | KMQISTKVCDMDLFCPKTIP | inactive
90 | KMSAPWEGQCECCGCDF | inactive
91 | KMSNGDTNDANVFIVRDSWL | inactive
92 | KNGFRNVRKQRGAQKE | inactive

Row | Substance | amyloid nucleation score
93 | KNNGTSKGVCRLQIMLFGLA | inactive
94 | KNQMVFVINY | 2.68 ± 0.053
95 | KPCHLYMTAEDTYVWMSVGL | inactive
96 | KPDVY | inactive
97 | KPLMWESSDNPEGWQLSLLG | -0.79 ± 1.4
98 | KPLVV | inactive
99 | KPPQNILVDMRLEGSMC | inactive
100 | KPWIFMESRDM | inactive
101 | KQFRVWFCYFL | 0.565 ± 0.14
102 | KQPCCNVFCC | 2.42 ± 0.069
103 | KQVNQSRLMISGGNCRGRAN | inactive
104 | KQVNSCDFLMWMLLALHFKG | inactive
105 | KRCWLWWIKVCTKMLLEVSS | inactive
106 | KRDHMVSLGYSLGSKQRGVG | inactive
107 | KRFHWFGVGVDAVMRFGV | inactive
108 | KRKRVK | inactive
109 | KRLFIILIWKFCTGLCFL | inactive
110 | KRPWTVFFVFFIGFATLL | 1.15 ± 0.1
111 | KRVCCCKNSSSCE | inactive
112 | KRVKWNCRGLDDSMLFFWVV | inactive
113 | KRVSTDAW | inactive
114 | KRYCSLMML | inactive
115 | KRYVCSTVTMLNCQVR | inactive

Row | Substance | amyloid nucleation score
116 | KSALTRPDARPVRYRQPTHS | inactive
117 | KSAREFGAHFMSTITVACTR | inactive
118 | KSCLCLSPRGFGTDSAAVKW | 0.966 ± 0.12
119 | KSFLLPCFCRTLWTWMHRHA | 1.11 ± 0.14
120 | KSGTGSNWFWKGGLSGTKKH | inactive
121 | KSLTAYSLFVASYLSSFEWG | inactive
122 | KSLTDHVNRSFLMVGVWMVK | inactive
123 | KSSWAIKSSNGTW | inactive
124 | KSWGLVHKCSSAFMFPKFCP | inactive
125 | KTHTPTVQMEL | inactive
126 | KTIFFMKGLVMSDDICSDRR | inactive
127 | KTLTKSNIWIG | -0.639 ± 0.87
128 | KTRERGLSTGDGTQNEIAGY | -0.123 ± 0.51
129 | KVFNTL | inactive
130 | KVLMST | -0.443 ± 1.4
131 | KVNGYSLMLLDPVGGLTNT | inactive
132 | KVSCEYSNNKWF | inactive
133 | KVWCKMLISSFIWMYVSE | inactive
134 | KVWSLYLYVRSTYRL | inactive
135 | KWAWVGISCPRYRSRLGYFS | inactive
136 | KWFAATVLSNKPREEKRMVT | inactive
137 | KWIVQAILSSEL | inactive
138 | KWMGKNTKSG | inactive

Row | Substance | amyloid nucleation score
139 | KWSLFLYRHGWCRLAGTLLV | -0.443 ± 1
140 | KWVCYHSWDYTCYHGEWYPS | inactive
141 | KYCGQLQFRCIELEGGIKRE | inactive
142 | KYCYIEWN | inactive
143 | KYDCRGEMLFQ | inactive
144 | KYDSY | inactive
145 | KYFIINYSVSSNGRKAHYCQ | 2.28 ± 0.065
146 | KYHLGECVLSPLAPKIHWEI | inactive
147 | KYIIWLLDDSDLI | inactive
148 | KYKAWMVCHTHWSTVKVKRL | inactive
149 | KYNFNYPEITLAPTYYMSIT | inactive
150 | KYTNTACLSRASIGNMIGQF | inactive
151 | KYYYVLGMQMYRHLYWTACV | inactive
152 | LAALLKASWVSHVVSWNKRT | inactive
153 | LAAMWPFV | inactive
154 | LAASLSGIYCPSLAWRGLKE | inactive
155 | LACSMLCVDPIADGHNFSYS | inactive
156 | LACSSSCILSPVVGIGFSWN | 1.89 ± 0.055
157 | LADNIRFISN | inactive
158 | LAIILLFAVRLCRDANGDAM | inactive
159 | LAITNIEWSLFIQWTLI | inactive
160 | LAMPTLLQASVTNLVGDSIV | -0.265 ± 0.39
